Data published in patent US20240279315A1 (priority 2023, published 2024).
Where two headings read alike, the source gives them in different places.

Tests used:
[1] = test system: influenza A/Hong Kong/2369/2009 (H1N1pdm) H275Y; design: species or system BALB/c mice; conditions: mouse, in vivo
[2] = target: hemagglutinin (HA) of influenza A/Michigan/45/2015 pH1N1 (influenza A virus A/Michigan/45/2015 (H1N1)); assay: cell-based or functional assay
[3] = target: hemagglutinin (HA) of influenza A/Guangdong-maonan/2019 H1N1 (influenza A virus A/Guangdong-maonan/2019 (H1N1)); assay: cell-based or functional assay
[4] = target: hemagglutinin (HA) of influenza A/Hong Kong/2671/2019 (Egg) H3N2 (influenza A virus A/Hong Kong/2671/2019 (H3N2)); assay: cell-based or functional assay
[5] = target: hemagglutinin (HA) of influenza A/Michigan/45/2015 pH1N1 (influenza A virus A/Michigan/45/2015 (H1N1)); assay: cell-based or functional assay; remark: listed apart in the source
[6] = target: hemagglutinin (HA) of influenza A/Guangdong-maonan/2019 H1N1 (influenza A virus A/Guangdong-maonan/2019 (H1N1)); assay: cell-based or functional assay; remark: listed apart in the source
[7] = target: hemagglutinin (HA) of influenza A/Michigan/45/2015 pH1N1 (influenza A virus A/Michigan/45/2015 (H1N1)); assay: cell-based or functional assay; remark: listed apart in the source

Compound | protection from weight loss [1] | HAI titer [2] [titer] | HAI titer (Cell) [3] [titer] | HAI titer (Egg) [3] [titer] | HAI titer ratio of SAB-176 to hIVIG (Cell) [3] [X] | HAI titer ratio of SAB-176 to hIVIG (Egg) [3] [X] | HAI titer (Egg) [4] [titer] | HAI titer ratio of SAB-176 to hIVIG (Egg) [4] [X] | HAI titer of drug product [2] [titer] | HAI titer [5] [titer] | HAI titer [6] [titer] | HAI titer ratio of SAB-176 to hIVIG [6] [X] | HAI titer [7] [titer] | HAI titer ratio of SAB-176 to hIVIG [7] [X] | HAI titer ratio of SAB-176 to hIVIG [2] [X] | HAI titer of drug product [3] [titer]
CCOC(=O)C1=C[C@@H](OC(CC)CC)[C@H](NC(C)=O)[C@@H](N)C1 [oseltamivir] | did not protect mice from weight loss |  |  |  |  |  |  |  |  |  |  |  |  |  |  | 
SAB-176 (antibody) |  | > 2048 |  |  |  |  |  |  |  |  |  |  |  |  |  | 
SAB-176 Lot 1 (PD1901102QR) (antibody) |  |  | 512 | 512 | 16 | 16 to 32 | 64 | 4 to 8 | 7680 | 1280 | 512 | 16 to 32 | 512 | 16 |  | 
SAB-176 Lot 2 (PD2001010QR) (antibody) |  | 512 | 512 | 512 | 16 | 16 to 32 | 128 | 8 to 16 | 14300 | 1280 |  |  |  |  | 16 | 
SAB-176 Lot 3 (antibody) |  | 512 | 512 | 512 | 16 | 16 to 32 | 256 | 16 to 32 |  |  |  |  |  |  | 16 | 
SAB-176 Lot 4 (PD2102092QR) (antibody) |  | 512 | 512 | 512 | 16 | 16 to 32 | 256 | 16 to 32 |  | 1810 | 512 | 16 to 32 |  |  | 16 | 7680
SAB-176 Lot 5 (PD2203294QR) (antibody) |  |  |  |  |  |  |  |  |  | 1280 |  |  |  |  |  | 
SAB-176 Lot 6 (PD2204315QR) (antibody) |  |  |  |  |  |  |  |  |  | 905 |  |  |  |  |  | 
negative control IgG (antibody) |  | < 1 | < 1 | < 1 |  |  | < 1 |  |  |  | < 1 |  |  |  |  | 
